Assay results reported in patent US20160311886A1, “Constructs Binding to Phosphatidylserine and Their Use in Disease Treatment and Imaging” (Board of Regents, The University of Texas System, priority 2005, published 2016).
Where two headings read alike, the source gives them in different places.

Legend:
[1] = system: L540 Hodgkin tumors; assay: Annexin V inhibition of coaguligand-induced thrombosis in vivo; parameters: species or system mouse
Experimental: The ability of Annexin V to inhibit coaguligand-induced thrombosis in vivo was examined in L540 Hodgkin-bearing SCID mice. Tumors were grown in mice and two mice per group (tumor size 0.5 cm in diameter) were injected intravenously via the tail vein with one of the following reagents: a) saline; b) 100 μg of Annexin V; c) 40 μg of anti-VCAM-1·tTF; d) 100 μg of Annexin V followed 2 hours later by 40 μg of anti-VCAM-1·tTF.
Four hours after the last injection mice were anesthetized and perfused with heparinized saline. Tumors were removed, fixed with 4% formalin, paraffin-embedded and stained with hematoxylene-eosin. The number of thrombosed and non-thrombosed blood vessels was counted and the percentage of thrombosis was calculated.

[2] = Serum dependence of binding to PS
Experimental: The serum dependence or independence of the antibodies is also set forth in Table 2 (see also, Example XXX).
The 1B9, 2G7 and 7C5 antibodies behave essentially the same. These antibodies recognize only PS and require serum or serum proteins for binding to PS. The binding of 1B9, 2G7 and 7C5 to various phospholipids in the present example was assayed only in the presence of 10% bovine serum, whereas binding of the other antibodies was tested either in the absence or in the presence of serum.

[3] = Anti-PS ELISA; format: binding
Experimental: The anti-PS ELISA used in the present studies example is conducted as follows. Unless particular differences are specified, this is the format of the ELISA used throughout the studies of the present application.
The ELISA of the present example is exemplified using the antigen PS (P-6641 25 mg 10 mg/ml (solvent is Chloroform:MeOH 95:5) in 2.5 ml bottle). Other phospholipids can be used using the same protocol. The PS (or other phospholipids) stock solution should be aliquoted and stored in an airtight container at −30° C. The preferred 96 well plates are Dynatech U bottom Immulon 1 (from Dynatech Labs, Cat#011-010-3550).
The standard blocking buffer used in the present example is 10% bovine serum dissolved in PBS. Other blocking solutions are suitable, but any detergents should be excluded from block and wash solutions. The primary antibody is the test sample or admixture. […] The developing solutions are: 10 ml of 0.2M Na2PO4, 10 ml of 0.1M citric acid, one 10 mg tablet of OPD, and 10 μl of hydrogen peroxide. The stop solution is 0.18 M H2SO4.
The protocol of the present example entails coating 96-well plate with PS as follows: dilute the PS stock solution in n-hexane to 10 μg/ml and mix well. Add 50 μl to each well and allow this to evaporate for one hour. Add 200 μl of 10% serum (or other blocking buffer) to each well, cover and maintain at room temperature for 2 hours or overnight at 4° C. Wash the plate three times with PBS. Add the primary antibody (dilute in blocking buffer) and incubate for 2 hours at 37° C. Wash three times with PBS. […] Wash the plate three times with PBS. Develop the ELISA by adding 100 μl of developing solution to each of the wells, develop for 10 minutes, then add 100 μl of stop solution to each plate and read the O.D. at 490 nm.

[4] = Phospholipid specificity ELISA; format: binding
Experimental: The specificity of the antibodies was determined by ELISA using plates coated with the following phospholipids: PS, phosphatidylserine; PE, phosphatidylethanolamine; PI, phosphatidylinositol; PA, phosphatidic acid; PG, phosphatidylglycerol; PC, phosphatidylcholine; CL, cardiolipin; and SM, sphingomyelin.

[5] = system: MDA-MB-231 tumor vessels; assay: Double staining of orthotopic MDA-MB-231 tumors; format: in vivo, mouse; conditions: biotinylated reagent i.v., one hour
Experimental: In further studies, mice bearing MDA-MB-231 tumors (0.3-0.7 cm^3 in volume) were injected intravenously with 50 μg of biotinylated 9D2, control IgM or annexin V (six mice per group). Biotinylated reagents were first incubated with streptavidin-Cy3 conjugate, washed in PBS, then incubated with MECA 32 antibody followed by FITC-tagged anti-rat IgG secondary antibody. Single images, taken with appropriate filters for Cy3 (red) and FITC (green) fluorescence respectively, were captured by digital camera and transferred to a computer. […] The same method was used to analyze tumors from mice injected with control rat IgM or saline. The percentage of vessels with localized 9D2 or annexin V was calculated as follows: mean number of yellow vessels per field divided by mean number of green (total) vessels multiplied by 100.
Double staining studies were also performed in which mice bearing orthotopic MDA-MB-231 breast tumors were injected intravenously with biotinylated 9D2 antibody, biotinylated control IgM or biotinylated annexin V. One hour later, the mice were exsanguinated, and their tumors were removed and frozen sections were cut. The tumor sections were then stained with Cy3-conjugated streptavidin to detect the biotinylated proteins and with FITC-conjugated MECA32 to detect vascular endothelium. […]

[6] = system: Pan02 mouse pancreatic adenocarcinoma; assay: 3G4 and gemcitabine, pancreatic cancer; format: in vivo; conditions: 3G4 100 μg, gemcitabine 3.5 mg; day 22
Experimental: Pan02 mouse pancreatic adenocarcinoma cells were injected into the pancreas of immunocompetent C57BL/6 mice. Treatment was started on day 5 after tumor cell injection. […] Gemcitabine is a pyrimidine anti-metabolite. The animals were sacrificed at day 22 after tumor cell injection, and the tumor weight determined.

[7] = system: tumors; assay: Tumor treatment with 3G4 and its F(ab′)2 fragment; format: in vivo, mouse; conditions: treated on day 9
[8] = system: Tissue Factor (TF)-induced coagulation
[9] = system: HUVECs
[10] = system: human CMV AD169; assay: CMV plaque assay after antibody treatment
[11] = system: RSV long strain; assay: RSV plaque assay after antibody treatment; conditions: MOI of 1
[12] = MW used for conversion: IgM 900 kDa, IgG 150 kDa, Annexin V 36 kDa, read-out: EC50

## Annexin V: High affinity PS binding ligand; natural ligand binding anionic phospholipids and PE
[1]; 100 μg Annexin V 2 hours before 40 μg coaguligand
  coaguligand-induced intravascular thrombosis and changes in tumor cell morphology: completely abolished
[1]; 100 μg Annexin V alone
  tumor morphology: did not alter tumor morphology
[2]
  Serum cofactor?: No
[3]; [12]
  EC50: 2.77 nM
[3]; dilutions of tissue culture supernatants
  EC50: 0.100 µg/mL
[3]; from EC50 in nM
  Affinity vs. 3SB (−fold increased): 0.18 fold
[3]; from EC50 in μg/ml
  Binding vs. 3SB (−fold increased): 4.68 fold
[4]
  Relative Strength of Reactivity on ELISA: PS = PE = PI = PA > CL > PG
[5]
  MECA 32 positive vessels that bound the reagent: About 40%

B1: 3G4: Mouse IgG3 kappa monoclonal antibody to PS and anionic phospholipids; binding mediated by β2-glycoprotein I (antibody, listed as Mus musculus)
VH: MGWTWIFILILSVTTGVHSEVQLQQSGPELEKPGASVKLSCKASGYSFTGYNMNWVKQSHGKSLEWIGHIDPYYGDTSYNQKFRGKATLTVDKSSSTAYMQLKSLTSEDSAVYYCVKGGYYGHWYFDVWGAGTTVTVSSATTTAPSVYPLVP
VL: MDMRAPAQILGFLLLLFPGTRCDIQMTQSPSSLSASLGERVSLTCRASQDIGSSLNWLQQGPDGTIKRLIYATSSLDSGVPKRFSGSRSGSDYSLTISSLESEDFVDYYCLQYVSSPPTFGAGTKLELKRADAAPTVFIFGRIP
[2]
  Serum cofactor?: β2-glycoprotein I and Yes,
[3]; [12]
  EC50: 0.266 nM
[4]
  binding specificity profile: PS=PA=PI=PG>CL>>PE
[6]
  anti-tumor effect (tumor weight): significant anti-tumor effect
[7]
  tumor growth: tumor growth was significantly slowed
[8]
  inhibition of TF-induced coagulation: weak inhibition
[9]
  activation of endothelial cells: does not activate resting HUVECs or HUVECs pre-activated with low concentrations of LPS
[10]; high m.o.i., addition delayed to 48 hours
  inhibitory effect on viral titer: 2 log10
[10]; high m.o.i., addition up to 24 hours after infection
  decrease in viral titer: 5-6 log10
[10]; m.o.i. of 3, 50 μg/ml
  inhibition of viral replication vs GV39G: 3 logs
[10]; m.o.i. of 3, 100 μg/ml
  decrease in viral titer vs GV39G: 5 log10
[10]; m.o.i.=0.01, 50 μg/ml
  decrease in viral titer vs GV39G: 3.5 log10
[10]; m.o.i.=0.01, 100 μg/ml
  inhibition of viral replication: approximately 99.9999%
[10]; m.o.i.=0.01 pfu/cell, 100 μg/ml
  decrease in viral titer vs GV39G: 6 log10
[11]
  decrease in viral titer: 2 log10
